Results taken from the nanobody polyreactivity screen of Harvey et al. (2022).

Assay: yeast display, Sf9 membrane polyspecificity reagent, FACS + sequencing; frameworks hold sequencing errors
Procedure, shortened: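 Nanobodies came from a synthetic yeast display library in Saccharomyces cerevisiae BJ5465, induced with galactose for 36–48 hours and stained for 1 hour at 4 °C with 10% biotinylated, detergent-solubilized Sf9 membrane reagent. Cells were enriched on streptavidin microbeads and then FACS-sorted, with low and high (top ~1%) gates set on anti-HA fluorescence for expression and streptavidin fluorescence for reagent binding. Each polyreactivity label reflects the gate a clone came from. Genes were amplified by colony PCR, sequenced by MiSeq 2 × 250 and filtered by CDR length.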

Sequence | polyreactivity (PSR sort gate)
QVQLVESGGGLVQAGGSLRLSCASSGRIFPYYAMGRYRQAPGKERDLVAAITSVGSTNYADSVKGRFTISRDNAKNTVYLQINSLKPEDTAVYYCAAESTEGTSGDYDYWAQGTQVTVSS | low polyreactivity
QVQLVESGGGLVQAGGSLRLSCAASGSTFRYYVMGWYRQAPGKERELVAAISSSGGSTYYADSVKGRFTISRDIAKNTVYLQMNSLKPEDTAVYYCARDKGYVSYRYNYWGQGTQVTVSS | high polyreactivity
HVQLVESGGGLVQAGGSLRLSCAASGRIFFRYAMGWYRQAPGKERELVAAISYSGGSTYYADSVKGRFTISRDNAKNTVYLQMNSLKPEDTAVYYCAAPLLRDLRSPYSYNYWGQGTQVTVSS | low polyreactivity
QVQLVESGGGLVQAGGSLRLSCAASGSIFQPYAMGWYRQAPGKERELVAAINGRGGSTHYADSVKGRFTISRDNAKNTVYLQMNSLKPEDTAVYYCAATWAYPGSGYVYFYGNDYWGQGTQVTVSS | high polyreactivity
QVQLVESGGGLVQAGCSLRLSCAASGRIFTSYAMGWYRQAPGKERELVAAISRSGARTYYADTVKGRFTISRDNAKNTVYLQMNSLKPEDTAVYDCAAVTVAGYDYWGQGTQVTVSS | high polyreactivity
QVQLVESGGGLVQAGGRLRLSCAASGSIFSHNVMGWYRQAPGKEGELVAAITYRGGSTYYADSVKGRFTISRDNAKNTVYLQMNSLKPEDTAVYYCSALNEVSTYHGFDYWGQGTQVTVSS | low polyreactivity
QVQLVESGGGLVQAGGSLRLSCAASGRIFLYYTMGWYRQAPGKERELVAAITRSGGSTYYADSVKGRFTISRDNAKNTVYLQMNSLKPEDTAVYYCNRAYVRYVPMNYWGQGTQVTVSS | high polyreactivity
QVQIVESGGGLVQAGGSLRIICAASGSTFDPNAMGWYRQAPGKERELVAGISTGGTRTYYADSVKGRFTISRDNAKNTVFLQLKSLKPEDTAVYYCAARFTYNVLDTIYRLYYWGQGTQVTVSS | high polyreactivity
QVQLVESGGGLVQAGGSLRLSCAASGFIFSYNAMGWYRQAPGKERELVAAISARGGSTYYADSVKGRFTISRDNAKNTVYLQMNSLKPEDTAVYYCNRKQAGHAQGYDYWGQGTQVTVSS | high polyreactivity
QVQFVESGGGLVQAGGSLRLSCAASGSTFQGYAMGWYRQAPGKERELVAAISRSGGRTYYADSVKGRFTISRDNAKNTVYLQMNSLKPEDTAVYYCAKYYWAPTGAHGGYGYWGQGTQVTVSS | low polyreactivity
QVQLVESGGGLVQAGGSLRLSCAASGIIFGRYAMGWYRQAPGKERELVATSSRGGGRTYYADSVKGRFTISRDNAKYTVYLLMNSLIPEDTAVYYCASYFYRGGLDSWGQGTQVTVSS | high polyreactivity
QVQLEESGGGLVQAGGSLRISCAASGFTFSHNAMGWYRQAPGKERELVAAISKGGSSTYYADSVKGRFTISRDNAKNTVYLQMNSLKPEDTAVYYCARPSPHKGYDYWGQGTQVTVSS | high polyreactivity
QVQLVESGGGLVQAGGSLRLSCAASGGTFVGNAMGWYRQAPGKERELVAAISTNSGSTYYADSVKGRFTISRDNAKNTVYLQMNSLKPEDPAVYYCATRNSSKRRGYYYWGQGTQVTVSS | high polyreactivity
QVQLVESGGGLVQAGGSLRLSCAASGRTFYRYAMGWYRQAPGKERELVARITNRGGITYYADSVKGRFTISRDNAKNTVYLQMNSLKPEDTAVYYCAADPIGYTWAGTHGDYYNEHDYWGQGTQVTVSS | low polyreactivity
QVQLVESGGGLVQAGGSLRLSCAASGRTFGYNAMGWYREAPGKERELVPAITTSGGSTYYADSVKGRFTISRDNAKNSVYLQMNSRKPEDTAVYYCAADYSFFYRYTWLVYIFDYDYWGQGTQVTVSS | low polyreactivity
QVQLVESGGGLVQAGGSLRLSCAASGRIFISNAKGWYRQAPGKERELVAAITWIGDRTYYADSVKGRFTISRDNAKNTVYLQMNSLKPEDTAVYYCNRVTSRVSGRYSYDYWGQGTQVTVSS | high polyreactivity

Sequence | polyreactivity (PSR sort gate)
QVQLVESGGGLVQAGGSLRLSCAASGSTFFTNAMGWYRQAPGKERELVAGISYGGGRTYYADSVKGRFTISLDNAKNTVYLQMNRLKPEDTAVYYCNTVTSQAPYYSYVSWGQGTQVTVSS | high polyreactivity
QVQLVESGRGLVQAGGSLRLSCAASGSIFAFYAMGWYRPAAGKERELVAVITRSGGSTYYADSVKGRFTISRDNAKITVYLQMNSLKPEDTAVFYCAARTGYGYTRYEYWGQGTQVTVSS | high polyreactivity
QVQLVESGGGLVQAGGSLSLSCAASGSIFYYNAMGWYRQAPGKERELVAAITSSAITNYADSVKGRFTISRDNAKNTVYLQMKSRKPEDTAVYYCAGRITTRPRSTRKRVWVDYWGQGTQVTVSS | high polyreactivity
QVQLVESGGGLVQAGGSLRLSCAASGSTIGKNVMGWYRQAPGKEREVVAAISARGGRSYYADSVKGRFTISRDIAKNTVYLQMNSLKPEDTAVYYCNTERSYTGTGRYRSSTAYGYWGQGTQVTVSS | high polyreactivity
QDQLEESGGGLRQAGGSLRLTCAASGIIFPYYTKGLYRQATGKEKLVAAISSRGGSTYYADSVKGRFTISRDNAKNTVYLQMTSLKPEDTAVYYCAAKNVYHDDFWGQGTQVTVSS | high polyreactivity
QVQLVESGGGLVQAGGSLRLSCAASGTFTVNTMGWSRQAPGKERELVAAISTGDTTTYADSVKGRFTISRDNAKNTVYLQMNSLKPEDTAVYYCNAVAKLYYWRYDYWGQGTQVTVSS | low polyreactivity
QDQLVESGGGLVQAGGSLRLSCAASGSTYYYAMGWYRQAPGKERELVAAIRSGSRTYADSVKGRFTISRDNAKNTVYLQMNSLKPEDTAVYYCAATTWRHNFYSWGQGTQVTVSS | high polyreactivity
QVQLVESGGGLVQAGGSLRLSCAASGRTFWANTMGWYRQAPGKERELVAAISKRGGSTYYADSVKGRFTISRDNAKNTVYLQMISLKPEDTAVFYCNADKSGWYDYWGQGTQVTVSS | high polyreactivity
QVQLVESGGGLVQAGGSLRLSCAASGIIFFKYGMGWYRQAPGKERELVAAITSGGSTYYADSVKGRFTISRDNAKNTVYLQMNSLKPEDTAVYYCNAQRYWRKVWEYESWGQGTQVTVSS | low polyreactivity
QVQLVESGGGLVQAGGSLRLSCAATGRIFYRNAMGWYRQAPGKERELVAAIRGSGGRTYYADSVKGRFTISRDNAKNTVYLQMNSLKPEDTAVYYCAAYGYYVEHPRGLSGPYDDDYWGQGTQVTVSS | low polyreactivity
QVQLVESGGCLVQAGGSLRLSCAASGSIFLYNAMGWYRQAPGKERELVAAIPYSGGRTYYADSVKGRFTISRDNAKNTVSFQMNSLKPEDTAFYYCAVKSFSGHGDYWGQGTQVTVSS | low polyreactivity
QVQLVESGGGLVQAGGSLSLSCAASGRIFRRYAMGWYRQAPGKEREFVAAISYGGGSTYYADSVKGRFTISRDNAKNTVYLQMNSLKPEDTAVYYCNADVPKSLLLYYPWGYGYWGQGTQVTVSS | low polyreactivity
QVQLVESGGGLVQAGGSLRLSCAASGGIFSYAMGWYRQAPGKERELVADINSDGSTTYADSVKGRFTISRDNAKNTVYLQMNSLKPEDTAVYYCAVDVSVNWPLLERYEYWGQGTQVTVSS | low polyreactivity
QVQRVESGGGLVQEGGSLRLSCAASGITFAGYAMGWYRQAHGKERELVAAISTRGGSTTYADSVKGRFTISLDNAKNTVYLQMNRLKPEDTAVYYCAADSYYRRYFGWYEYWGQGTQVTVSS | high polyreactivity
QVQLVESGRGLVQAGASLRLSCAASGSTFAQYARGSYRQAPWKESELVAAITRTGITNYADSVKGRFTISRDNAKNNVYLQMNSLKPEDTAVYYCAARRWRNGYGTGYGYWGLGTQVTVSS | high polyreactivity
